Measurements taken from patent US9567369B2, “Method of treating metastatic cancer” (A.T. Still University, priority 2012, dated 2017).
Ends that are not written are not given here.

Key:
[1] = test system: metastatic human melanoma 1205 Lu cells; assay: MTT growth assay of human 1205 Lu melanoma cells with peptide; type: cell-based; details: peptide 10 uM, 1 time addition or day 1-3 addition; identical conditions as for B16
Procedure: B16F10 melanoma cells were obtained from the ATCC. Human 1205 Lu metastatic melanoma cell line was received from Robert Baer, PhD, a collaborator with our laboratory here at ATSU. Growth was in RPMI 1640 media supplemented with FBS (10%) and penicillin, streptomycin, amphotericin antibiotics (1%) (Sigma). Cells were maintained in a humidified incubator at 37° C. with 5% CO2.
The growth of B16F10 melanoma cells by the MTT method was performed with the addition of 10 uM peptide to the melanoma cells in standard 96-well culture plates. Cells were cultured in media for 4 days after seeding at about 1000 cells per well. After growth the culture media was replaced with media containing 0.5 mg/ml MTT solution and incubated for 4 hours at 37° C. The MTT solution was then removed and the residual dye was solubilized in 100 ul isopropanol for 15 minutes before reading the O.D. at 570 nm.

protein kinase C (PKC) = assay: Inhibition of protein kinase C activity
papain = molecular target: T1, papain (Carica papaya, UniProt P00784); details: at 160 uM; cited from earlier work
T1 sequence (P00784 134-345): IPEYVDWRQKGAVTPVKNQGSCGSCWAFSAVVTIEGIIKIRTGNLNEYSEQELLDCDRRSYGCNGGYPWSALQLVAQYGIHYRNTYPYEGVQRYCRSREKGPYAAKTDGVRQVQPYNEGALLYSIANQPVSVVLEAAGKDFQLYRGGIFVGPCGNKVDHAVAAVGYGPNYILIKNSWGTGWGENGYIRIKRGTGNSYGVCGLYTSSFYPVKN

B16 melanoma cells = assay: Boyden chamber-type migration assay, Cystatin C overexpressing clone cc6 versus control plasmid clone pc2; type: cell-based, murine; details: B16 melanoma cells overexpressing Cystatin C (clone cc6) compared to control plasmid transfected (pc2); bFGF chemotactic factor
From the text: (§1) The Cystatin C cDNA was amplified from B16F10 melanoma cells by PCR amplification of reverse transcribed total RNA isolated from B16 F10 melanoma cells in culture. The primers used for the amplification were derived from 5′ and 3′ sequences for murine Cystatin C from Solem et al. (18). The PCR product corresponding to the expected size was agarose gel purified and ligated into pcDNA3 expression plasmid for further analysis. The plasmid was sent to for sequence analysis at the University of Chicago and the sequence analysis produced a cDNA sequence which exactly matched murine Cystatin C cDNA sequence (19). Transfection of the cystatin plasmid or pcDNA3 plasmid was carried out with Lipofectamine™ reagent (Invitrogen) by the manufacturer's instructions. Isolated cell colonies, which had grown following Geneticin® (1 mg/ml) selection were trypsized in glass cloning rings and transferred to multi-well tissue culture dishes for expansion in culture.
Cells (2×104) are placed into the top well of the Boyden chamber in cell culture media while media plus bFGF chemotactic factor (25 ng/ml) is placed into the lower well of the chamber. Quantitation is through direct microscopic counting of 10-20 fields of crystal violet stained cells per filter.

[2] = test system: MARCKS phosphorylation in B16F10 melanoma cells; assay: MARCKS phosphorylation by western blot with phospho-antibody probing; type: cell-based; details: murine Cystatin C overexpressing clone cc6 B16F10 melanoma cells vs control
From the text: as §1
For analysis of B16 melanoma proteins, melanoma cell cultures were lysed with lysis buffer and extracts were centrifuged at 10K rpm for 5 minutes. Protein was measured by Lowry assay and 40 ug of protein was loaded per lane on 10% SDS-PAGE gels for analysis. After electrophoresis, the proteins were transferred to PVDF membranes which were first blocked with 2% BSA in TBST buffer. […]

## RQIKIWFPNRRMKWKKAYRKQLVAGVNYFFDVH [penetratin linked to active peptide]
[1]
  growth of human 1205 Lu melanoma cell line: significantly inhibits

## YRKQLVAGVNYFFDVH (listed as Mus musculus) [therapeutic peptide, Therapeutic peptide derived from mouse Cystatin C with the first A substituted by Y]
Protein kinase C (PKC)
  inhibition of protein kinase C (PKC) activity: inhibits
papain
  inhibition of papain: 20%

B1: Cystatin C: natural cysteine protease inhibitor; murine Cystatin C cDNA overexpressed from pcDNA3 plasmid in B16F10 melanoma cells (clone cc6) (protein, UniProt P21460 21-140, looked up)
Cystatin-C: ATPKQGPRMLGAPEEADANEEGVRRALDFAVSEYNKGSNDAYHSRAIQVVRARKQLVAGVNYFLDVEMGRTTCTKSQTNLTDCPFHDQPHLMRKALCSFQIYSVPWKGTHSLTKFSCKNA
B16 melanoma cells
  inhibition of migration: ~80%
[2]
  average level of MARCKS phosphorylation, fold less: 3-5 fold
